Measured values: patent publication US7838231

Columns and labels:
[1] = molecular target: endogenous ATF4 of HEK293T cells (UniProt P18848); assay: cell-based or functional assay
[2] = molecular target: full-length ATF4 (pCEP-ATF4) (UniProt P18848); assay: cell-based or functional assay
Chain of full-length ATF4 (pCEP-ATF4) (P18848 whole entry): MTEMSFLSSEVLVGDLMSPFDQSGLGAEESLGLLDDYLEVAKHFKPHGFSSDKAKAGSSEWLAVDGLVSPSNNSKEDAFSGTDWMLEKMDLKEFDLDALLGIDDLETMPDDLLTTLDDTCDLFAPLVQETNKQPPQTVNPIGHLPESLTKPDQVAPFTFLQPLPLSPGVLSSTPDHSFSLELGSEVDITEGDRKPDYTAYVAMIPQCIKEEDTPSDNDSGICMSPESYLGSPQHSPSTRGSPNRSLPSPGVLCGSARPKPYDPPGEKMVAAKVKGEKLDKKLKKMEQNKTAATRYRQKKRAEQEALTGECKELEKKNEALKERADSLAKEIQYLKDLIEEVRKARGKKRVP

Chain of endogenous ATF4 of HEK293T cells (P18848 whole entry): as above

| Substance | reporter activity (pCRE-ATF4X2, HEK293T cells) after knock-down of NPHP6 with pTER-NPHP6, compared to empty vector [1] [%] | reporter activity (dual-luciferase reporter construct for ATF4, pCRE-ATF4×2, in HEK293T cells), compared to empty vector pCEP4F [2] [fold] | reporter activity (pCRE-ATF4×2, HEK293T cells) with either construct alone, compared to empty vector pCEP4F [2] [fold] |
| --- | --- | --- | --- |
| endogenous NPHP6 of HEK293 / HEK293T cells (from UniProt O15078 1-2479) | 75.4 |  |  |
| myc-tagged full-length human NPHP6 (pCJW206-Cep290) (from UniProt O15078 1-2479) |  | 9.7 | 2 |
